Where two headings read alike, the source gives them in different places.
Legend:
[1] = target: human ROR1 on stably transfected cell strain MCF7-hROR1 clone 2G2 (human) (UniProt Q01973); assay: flow cytometry (FACS) on MCF7-hROR1 clone 2G2 cells, identification of the stably transfected clone
SKBR3 tumor cell = assay: Binding of anti-HER2 ADC and antibody with SKBR3 tumor cell by FACS; design: species or system human
Protocol: SKBR3 cells (from ATCC) were collected, counted, and plated in a 96-well plate (Corning, 3795) at 2×10^5 cells/well. The serially diluted sample to be detected was added and incubated at 4° C. for 1 h. After the mixture was washed twice with ice PBS, Alexa Fluor-647 goat anti-human Fc secondary antibody (JacksonImmuno, 109-605-098) was added, and the mixture was incubated at 4° C. for 1 h. After the mixture was washed twice with ice PBS, the cells were resuspended, and the mean fluorescence intensity (MFI) was analyzed using a flow cytometer (BD FACSCanto™ II). Data were analyzed by four-parameter curve fitting using Graphpad Prism software to give EC50 values.

MCF7-hROR1 clone 2G2 = assay: FACS identification of MCF7 cell line stably transfected with human ROR1 protein; assay type: binding
Protocol: A nucleotide sequence encoding the amino acid sequence of human ROR1 (SEQ ID NO: 105) was cloned into a pLVX lentiviral vector, and viral particles were prepared in HEK293T cells. After lentivirus infection, the MCF7 cell line (purchased from Chinese Academy of Science), was selectively cultured in a DMEM (Gibco, Cat. No. 11995073) medium containing 5 μg/mL puromycin (Gibco, Cat. No. A1113803) and 10% (w/w) fetal bovine serum (ExCell Bio, Cat. No. FND500) for 1 week. Positive cell populations with different expression levels were sorted on a flow cytometer FACS Aria III (purchased from BD Biosciences) using ROR1-Ab-1 and goat anti-mouse IgG (H+L) antibody (Jackson, Cat. No. 115605006) and cultured in 96-well plates at 37° C. with 5% (v/v) CO2. After about 2 weeks, a portion of the cells were selected for expansion, and positive cell populations with better growth, higher fluorescence intensity, and better homogeneity were selected, further expanded and cryopreserved in liquid nitrogen.

[2] = system: OVCAR3 subcutaneous tumor model; assay: Efficacy in OVCAR3 subcutaneous tumor model-1; assay type: in vivo, Balb/c nude mice; conditions: 3 mg/kg, single intravenous injection
Text: Experimental reagent: Human ovarian cancer OVCAR3 cells were purchased from ATCC, RPMI-1640 medium was purchased from Gibco (Cat. No. A104910), fetal bovine serum was purchased from Excell (Cat. No. FND500), penicillin-streptomycin was purchased from Gibco (Cat. No. 15140122), bovine insulin was purchased from Yeasen (Cat. No. 40107ES60), 0.25% trypsin-EDTA was purchased from Gibco (Cat. No. 25200-072), D-PBS (phosphate-buffered saline without calcium and magnesium ions) was purchased from Hyclone (Cat. No. SH30256.01), and Matrigel was purchased from Corning (Cat. No. 356237).
Animal information: Balb/c nude mice, female, 5-6 weeks, weight about 14-20 g, purchased from Beijing Vital River Biotechnology Co., Ltd. The mice were bred in SPF-rated environment with air exhaust for each cage individually. All animals had free access to standard certified commercial laboratory diets and water.
Cell culture: The human ovarian cancer OVCAR3 cell strain was cultured in vitro under the conditions of RPMI-1640 added with 20% fetal bovine serum, 1% penicillin-streptomycin, and […] bovine insulin, and an incubator at 37° C. with 5% CO2. The cells were digested with a 0.25% trypsin-EDTA digestive solution once a week for passaging as per conventional practice. When the cell saturation was 80%-90% and a required amount was achieved, the cells were collected and counted.
Cell inoculation: 0.1 mL of OVCAR3 cell suspension (containing 1×10^7 cells, RPMI-1640: Matrigel, volume ratio 1:1) was inoculated subcutaneously into the axilla of each mouse. On day 26 after inoculation of the cells, the mice were randomly grouped and administrated based on tumor volume.
The day when random grouping was performed was day 0.
Tumor diameters were measured twice weekly using a vernier caliper. The tumor volume was calculated using the following formula: V=0.5a×b^2, where a and b represent the long diameter and short diameter of the tumor, respectively. Mouse body weight was measured twice weekly.

[3] = 37° C., 100 μg/mL
Protocol: ADC molecules (final concentration: 100 μg/mL) were separately incubated with human plasma (Oribiotech, PB021-C) and monkey plasma (Shinuoda Bio, SND-X0107) in an incubator at 37° C. The day of incubation was defined as day 0. Samples were taken on days 7, 14 and 28 and tested for the free small molecule.
300 μL of an internal standard working solution (acetonitrile preparation) was added to 20 μL of the sample, and the mixture was vortexed for mixing for 5 min and centrifuged for 5 min (14000 rpm). 4 μL of the supernatant was analyzed by LC-MS/MS (API 6500+).

Molecule: IgG subtype control (antibody)
- Mean fluorescence intensity of cells [1]: 54.7

Molecule: Pertuzumab: anti-human HER2 monoclonal antibody; VH SEQ ID NO: 3, VL SEQ ID NO: 4 [reference compound]
- EC50 (SKBR3 tumor cell): 3.73 nM

B1: ROR1-Ab-1: anti-human ROR1 monoclonal antibody, variable region sequence from patent WO2020198531A2; SEQ ID NO: 80/81 (antibody, V domains shown)
VH: QVQLQESGPGLVKPSQTLSLTCTVSGYAFTAYNIHWVRQAPGQGLEWMGSFDPYDGGSSYNQKFKDRLTISKDTSKNQVVLTMTNMDPVDTATYYCARGWYYFDYWGHGTLVTVSS
VL: DIVMTQTPLSLPVTPGEPASISCRASKSISKYLAWYQQKPGQAPRLLIYSGSTLQSGIPPRFSGSGYGTDFTLTINNIESEDAAYYFCQQHDESPYTFGEGTKVEIK
- Mean fluorescence intensity of cells (MCF7-hROR1 clone 2G2): 26497

B2: ADC-DS: comparator CDH6 antibody-drug conjugate of Table 9, DAR 7.5 (conjugate, chains of the INN, looked up)
VH: EVQLVQSGAEVKKPGASVKVSCKASGYTFTRNFMHWVRQAPGQGLEWMGWIYPGDGETEYAQKFQGRVTITADTSTSTAYMELSSLRSEDTAVYYCARGVYGGFAGGYFDFWGQGTLVTVSS
VL: DIQMTQSPSSLSASVGDRVTITCKASQNIYKNLAWYQQKPGKAPKLLIYDANTLQTGVPSRFSGSGSGSDFTLTISSLQPEDFATYFCQQYYSGWAFGQGTKVEIK
modifications: deruxtecan payload, DAR 7.5
- Mean tumor volume (mm^3) Day 0 ([2]; Table 23): 154.4 mm^3
- Mean tumor volume (mm^3) Day 4 ([2]; Table 23, Day 4): 211.3 mm^3
- Mean tumor volume (mm^3) Day 7 ([2]; Table 23, Day 7): 194.1 mm^3
- Mean tumor volume (mm^3) Day 11 ([2]; Table 23, Day 11): 159.5 mm^3
- Mean tumor volume (mm^3) Day 14 ([2]; Table 23, Day 14): 131.5 mm^3
- Mean tumor volume (mm^3) Day 18 ([2]; Table 23, Day 18): 95.5 mm^3
- Mean tumor volume (mm^3) Day 22 ([2]; Table 23): 73.6 mm^3
- Mean tumor volume (mm^3) Day 25 ([2]; Table 23, Day 25): 66.0 mm^3
- Mean tumor volume (mm^3) Day 28 ([2]; Table 23, Day 28): 77.8 mm^3
- TGI (%) Day 28 ([2]; Table 23, Day 28): 110.6%
- Mean tumor volume (mm^3) Day 0 ([2]; Table 24): 145.0 mm^3
- Mean tumor volume (mm^3) Day 5 ([2]; Table 24, Day 5): 165.9 mm^3
- Mean tumor volume (mm^3) Day 8 ([2]; Table 24, Day 8): 153.4 mm^3
- Mean tumor volume (mm^3) Day 12 ([2]; Table 24, Day 12): 91.4 mm^3
- Mean tumor volume (mm^3) Day 16 ([2]; Table 24, Day 16): 56.2 mm^3
- Mean tumor volume (mm^3) Day 19 ([2]; Table 24, Day 19): 41.2 mm^3
- Mean tumor volume (mm^3) Day 22 ([2]; Table 24): 28.9 mm^3
- Mean tumor volume (mm^3) Day 27 ([2]; Table 24, Day 27): 23.4 mm^3
- TG (%) Day 27 ([2]; Table 24, Day 27): 134.2%
- Free small molecule % ([3]; Human plasma, incubation 0 day): 0.59%
- Free small molecule % ([3]; Human plasma, incubation 7 days): 0.72%
- Free small molecule % ([3]; Human plasma, incubation 14 days): 1.21%
- Free small molecule % ([3]; Human plasma, incubation 28 days): 1.90%
- Free small molecule % ([3]; Monkey plasma, incubation 0 day): 0.64%
- Free small molecule % ([3]; Monkey plasma, incubation 7 days): 2.28%
- Free small molecule % ([3]; Monkey plasma, incubation 14 days): 4.03%
- Free small molecule % ([3]; Monkey plasma, incubation 28 days): 9.66%
